# In PMC12234955 (Nature Communications, 2025):
# B1: NB18 (VHH)
# VHH: QVQLQESGGGSVQAGGSLRLSCAASGYTYSRTCMAWFRQAPGKEREGIATINSDGTTTYADSVKGRFTISRDNAKNTLSLQMNSLKPEDTAMYYCAAASLSTRGCSRAEWEYRYWGQGTQVTVSS
# B2: Norrin-Fc (human Norrin K25-S133, HRV 3C site, human IgG1 Fc, C-terminal FLAG), Q00604 25-133 (Fc fusion)
# chain: KTDSSFIMDSDPRRCMRHHYVDSISHPLYKCSSKMVLLARCEGHCSQASRSEPLVSFSTVLKQPFRSSCHCCRPQTSKLKALRLRCSGGMRLTATYRYILSCHCEECNS
# B3: Norrin-Fc (human Norrin K25-S133, HRV 3C site, human IgG1 Fc, C-terminal FLAG) (Fc fusion)
# chain: B2 chain
# Experiments:
# [1] = molecular target: LGR4-ECD (LGR4 ectodomain) (human, UniProt Q9BXB1); experiment: BLI
# [2] = molecular target: T1, Norrin-Fc (human Norrin K25-S133, HRV 3C site, human IgG1 Fc, C-terminal FLAG) (human), Q00604; experiment: cryo-EM structure; settings: remark: other sources report otherwise
# T1 chain: B2 chain
# [3] = molecular target: Human LGR4 (residues A25-Q833), C-terminal Flag tag (human, UniProt Q9BXB1 25-833); experiment: cryo-EM structure
binder,measurement,setting,value
B1,Kd,[1],0.15 nM
B2,stoichiometry N,[2],2
B3,stoichiometry N,[3],1 Norrin chains per LGR4 (2:2)
